± gives the uncertainty stated by the source.
Assay: protein stability index of a GFP-peptide fusion (yeast GPS) (PSI 1-4); higher = more stable; sorted into four equal gates, so the index is relative within each strain
Settings: ubr1∆
Summary of the method: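 Tiled 17-residue yeast protein peptides were fused downstream of GFP in a plasmid that also expresses Cherry, and the pooled library was carried in yeast. Mid-log cultures in leucine-free medium were sorted into four equal gates by GFP/Cherry fluorescence ratio, and plasmids from each gate were PCR-amplified and Illumina-sequenced, with reads assigned to strains by barcodes. The protein stability index for each peptide was each gate's read frequency times its gate number, summed.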

KLLKIPKFISEALAFTS [YDL116W/NUP84] and KLLKVCLTMFEDRNESV [ECM29] are within error of each other in protein stability index: 2.75 ± 0.05 for the first, 2.66 ± 0.16 for the second.

Going from KLLSLLRSKTSAGRIES [SIR4] to KLMDEDSVATVIEVIET [YJR042W/NUP85], the protein stability index rises from 2.36 ± 0.12 to 2.98 ± 0.15.

Going from KLNQKYDIVKFLTVSKL [GRR1] to KLQENRTLLTEEIEPKL [SMC2], the protein stability index rises from 2.04 ± 0.026 to 3.19 ± 0.14.

First: KLQGLYENIPIYATFLN [YDL116W/NUP84]
Second: KLQSWDKVSSCFPQYVN [NNF1]
The protein stability index of the first is lower: 1.13 ± 0.059 for the first, 2.68 ± 0.1 for the second.

Going from KLSDIFLSKPSKALYPD [SNF2] to KLVRDAFALAKEKAPTI [RPT5], the protein stability index rises from 2.7 ± 0.041 to 3.08 ± 0.083.

Compared with KLVTYIVKFKQKEEGRS [YLR335W/NUP2], KLYDAKRYTSEGTRNRF [YMR129W/POM152] is lower in protein stability index: 3.34 ± 0.051 for the first, 3.02 ± 0.055 for the second.

Going from KMATDNKINSRNSWNFA [BRN1] to KMDFSSKEGQYKAKIKE [YIL149C/MLP2], the protein stability index rises from 1.92 ± 0.12 to 3.16 ± 0.048.

First: KMLNEFVKKTSEEIDSL [SMC2]
Second: KMLSCAGADRLQQGMRG [RPL10]
The protein stability index of the first is lower: 3.09 ± 0.12 for the first, 3.32 ± 0.085 for the second.

Going from KNDLFVIWSEDNDEKLI [RPO21] to KNEKLKFQETLLRQKIE [ISW2], the protein stability index falls from 2.44 ± 0.089 to 1.15 ± 0.071.

Compared with KNGVIPEESKGSFKYIT [SWP82], KNIPKTRYNRDYMLSMA [SNU114] is lower in protein stability index: 3.18 ± 0.052 for the first, 1.87 ± 0.039 for the second.

Compared with KNKENNTFTWNHSLQHQ [RPN4], KNLQRESCEDILDLKEF [RTT102] is higher in protein stability index: 1.95 ± 0.046 for the first, 3.45 ± 0.16 for the second.

KNNNGDEKNKNNNEDNE [MED2] and KNNNNANNNGSNLQRAQ [GAL11] are within error of each other in protein stability index: 3.15 ± 0.11 for the first, 3.02 ± 0.11 for the second.

First: KNNSSIRNVIMSASNAN [SRB8]
Second: KNPHDIIEGINAGEIEI [RPL12A]
The protein stability index of the first is lower: 1.75 ± 0.044 for the first, 2.34 ± 0.06 for the second.

First: KNQLRDWIRFVSIRQNQ [RPL22B]
Second: KNSRVELQKIYDRHQSS [SMC4]
The protein stability index of the first is lower: 1.29 ± 0.091 for the first, 3.14 ± 0.11 for the second.

Compared with KNYDATDKPFSSTQDVI [CSI1], KPKAVARKSKEEREAAA [RPC53] is lower in protein stability index: 3.06 ± 0.086 for the first, 2.64 ± 0.17 for the second.

Compared with KPLADLRPLFTRYELYI [YLR335W/NUP2], KPNNTANTGGGLFGANS [YGL172W/NUP49] is higher in protein stability index: 2.02 ± 0.029 for the first, 3.08 ± 0.089 for the second.

Going from KPNQTIMVLDASIGQAA [SRP54] to KPSFSFGVPNSSKNETS [YLR335W/NUP2], the protein stability index falls from 2.64 ± 0.049 to 1.5 ± 0.059.

Compared with KPYVDRFAFSVIWELDD [DIS3], KQDCVDWFTYSYFYRRI [BRR2] is lower in protein stability index: 2.38 ± 0.034 for the first, 1.41 ± 0.029 for the second.

Compared with KQDEKKSSELELQKLVH [SMC2], KQENSSRFTNVSVIAPE [YMR153W/NUP53] is lower in protein stability index: 3.35 ± 0.051 for the first, 2.49 ± 0.033 for the second.

First: KQFVVDVLHPNRANVSK [RPS24A]
Second: KQHAVLMLGSVNLPGGI [RRP4]
The protein stability index of the first is higher: 3.07 ± 0.05 for the first, 1.66 ± 0.037 for the second.

Compared with KQQEQLEQQKQPTGLLK [YMR153W/NUP53], KQRAGTASFIPLDTIET [SMC1] is lower in protein stability index: 3.15 ± 0.065 for the first, 2.66 ± 0.051 for the second.

Going from KQREIVKAFLSIFEDAI [NUT1] to KQRFQGCNNLIKNISNR [ARP9], the protein stability index rises from 1.76 ± 0.1 to 3.03 ± 0.048.

First: KQRKNPRRIAWTVLFRK [RPL24A]
Second: KQVLDVDPVYKDVAKPT [FAS2]
The protein stability index of the first is lower: 2.27 ± 0.048 for the first, 2.86 ± 0.041 for the second.

Going from KRAEKAARKAEKAKSAG [RPL24B] to KRAFTKKVASANATAAE [RPL16A], the protein stability index falls from 2.92 ± 0.04 to 2.55 ± 0.037.

KRCMDDLNPLKTLNLFK [RPO31] and KRFLILQGEVENIAQMK [SMC4] are within error of each other in protein stability index: 2.92 ± 0.064 for the first, 2.79 ± 0.098 for the second.

Going from KRIESLQKDLQRQKTYV [SMC1] to KRIKGLEFSALSAADIV [RPO31], the protein stability index rises from 2.9 ± 0.15 to 3.24 ± 0.067.

First: KRLLGTAFKSSPFGGSS [RPS23A]
Second: KRLNFSFVGDYMHDTEL [GRR1]
The protein stability index of the first is lower: 2.23 ± 0.034 for the first, 3.22 ± 0.085 for the second.

First: KRPGKLSDYIPGPYPNE [CYT1]
Second: KRPRSRTLTAVHDKVLE [RPS7B]
The protein stability index of the first is higher: 3.16 ± 0.037 for the first, 2.08 ± 0.24 for the second.

First: KRPTPPSFTFGGSTTNN [YOR098C/NUP1]
Second: KRRFGELMDRTGLKLYS [RPP1]
The protein stability index of the first is higher: 2.9 ± 0.032 for the first, 2.45 ± 0.11 for the second.

Compared with KRSMDAEQLGHASKRHK [RPP1], KRSQKKHKKKHLKHENA [RPB4] is higher in protein stability index: 2.61 ± 0.054 for the first, 3.25 ± 0.043 for the second.

Compared with KRTIRIKTQQHILPEVP [TAF14], KRVDFSGRTVISPDPNL [RPO31] is higher in protein stability index: 2.07 ± 0.063 for the first, 2.83 ± 0.086 for the second.

Going from KSAISNNFRESDIIILK [SIR4] to KSFYSTATGAASKSGKL [CYT1], the protein stability index falls from 3.09 ± 0.059 to 2.75 ± 0.059.

KSGRINGFHGRLGDLGV [SMC4] and KSMASAFGVSVAFLDND [RPN7] are within error of each other in protein stability index: 3.31 ± 0.045 for the first, 3.24 ± 0.062 for the second.

Compared with KSMGRKCFDDIEPHIFD [YCG1], KSMLSKPETLSIGKNPF [SWI3] is lower in protein stability index: 3.32 ± 0.048 for the first, 2.9 ± 0.037 for the second.

First: KSMSILNSFVNDIFERI [HTB1]
Second: KSSFVKESAVISKQKSK [SMC1]
The protein stability index of the first is higher: 2.94 ± 0.062 for the first, 2.37 ± 0.037 for the second.

Going from KSSLYSAQDLLDKHERK [YIL149C/MLP2] to KSSPISNEAAKPSFSFP [YOR098C/NUP1], the protein stability index falls from 3.15 ± 0.036 to 3 ± 0.04.

Going from KSTYRTPNFDDVLKENN [RIP1] to KSVEKTMIKKTTLVTRR [SMC3], the protein stability index rises from 2.1 ± 0.079 to 3.4 ± 0.2.

Compared with KTAIEGSYIDKKCPFTG [RPS11A], KTAPIQESFVPNSERSG [YOR098C/NUP1] is lower in protein stability index: 3.27 ± 0.036 for the first, 3.03 ± 0.081 for the second.

Compared with KTAQTLDENLNSLSSNL [YJL041W/NSP1], KTATVKINKKLNKAGKP [RPL38] is higher in protein stability index: 2.46 ± 0.037 for the first, 3.19 ± 0.1 for the second.

First: KTFEIKEIKTNEYVIKT [YMR129W/POM152]
Second: KTKKEKGPNEEEKKKEH [RPN2]
The protein stability index of the first is lower: 2.02 ± 0.047 for the first, 3.13 ± 0.19 for the second.

KTLHSQMMSKGIGALFT [RPC34] and KTLTEEVTKSSHVENLE [YIL149C/MLP2] are within error of each other in protein stability index: 3.18 ± 0.21 for the first, 3.13 ± 0.035 for the second.

Compared with KTTNTTPSFSFGAKSDE [YJL041W/NSP1], KTVAVDSVFEQNEMIDA [RPL3] is lower in protein stability index: 3.18 ± 0.048 for the first, 2.51 ± 0.042 for the second.

Compared with KTVQSMTQRAIQSAESI [SWI3], KTYALESINNVVDQLWS [RPN2] is higher in protein stability index: 1.82 ± 0.12 for the first, 2.6 ± 0.055 for the second.

Compared with KVDATPEESKPINLQNG [YLR335W/NUP2], KVDSPDDPFMTKSGATT [GAL11] is lower in protein stability index: 3.21 ± 0.049 for the first, 2.79 ± 0.045 for the second.

KVFDCGDNIVMSANGFA [PRE7] and KVFVPPKSKSLPNEMSQ [RPO31] are within error of each other in protein stability index: 2.97 ± 0.15 for the first, 2.87 ± 0.13 for the second.

Going from KVGAEMMMQQQLKNVQL [MED2] to KVGIWPYFDYIFNDILA [YJL039C/NUP192], the protein stability index falls from 2.66 ± 0.085 to 1.43 ± 0.061.

Going from KVKKPLKYLSVEEVIKL [PRE7] to KVLINDQLSTISMILRN [SWI1], the protein stability index rises from 2.23 ± 0.067 to 2.68 ± 0.042.

Going from KVLKSGSGVDSSKLQLT [RRP42] to KVLQLLRLTRINSGTFV [RPL7A], the protein stability index falls from 3.29 ± 0.1 to 1.07 ± 0.065.

KVSAREKSAYKFFHNGM [FAS2] and KVSSAEYYAKKRAFTKK [RPL16A] are within error of each other in protein stability index: 3.54 ± 0.13 for the first, 3.36 ± 0.082 for the second.

Compared with KVVKTPGGILRAQHVKK [RPL34A], KWPEYVRVQRQKKILSI [RPL8A] is lower in protein stability index: 2.71 ± 0.063 for the first, 1.23 ± 0.038 for the second.

First: KWQTLIEANVTVKTSDD [RPS1A]
Second: KYIGEGSRMVRELFVMA [RPT6]
The protein stability index of the first is lower: 1.67 ± 0.037 for the first, 1.89 ± 0.07 for the second.

From the supplement of paper PMC9732359
